Results as given in PMC11686999.

Target: Pyruvate kinase M2 (PKM2) (human (endogenous in HCT116 and RKO)) (UniProt P14618)
Assay: cross-linking

Sequence of Pyruvate kinase M2 (PKM2), P14618 1-531 (natural protein; other documents disagree on this pair) (P14618 whole entry): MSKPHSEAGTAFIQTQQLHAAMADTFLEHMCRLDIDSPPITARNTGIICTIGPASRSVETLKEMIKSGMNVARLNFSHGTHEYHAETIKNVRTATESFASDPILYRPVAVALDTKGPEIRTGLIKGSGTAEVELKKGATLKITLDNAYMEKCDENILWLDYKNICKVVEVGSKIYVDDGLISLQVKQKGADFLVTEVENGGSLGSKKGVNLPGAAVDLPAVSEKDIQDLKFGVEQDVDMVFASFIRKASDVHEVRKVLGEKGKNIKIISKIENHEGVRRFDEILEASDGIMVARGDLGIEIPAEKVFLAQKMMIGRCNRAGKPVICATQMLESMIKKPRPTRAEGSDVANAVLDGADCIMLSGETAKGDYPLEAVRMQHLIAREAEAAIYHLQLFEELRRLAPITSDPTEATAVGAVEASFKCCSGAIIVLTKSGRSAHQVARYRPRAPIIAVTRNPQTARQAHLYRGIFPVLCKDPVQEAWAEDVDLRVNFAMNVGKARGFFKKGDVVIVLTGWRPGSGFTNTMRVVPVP

Q: With “Pyruvate kinase M2 (PKM2), P14618 1-531 (natural protein; other documents disagree on this pair)” as the substance, how does the stoichiometry N read?
A: Its stoichiometry N is 2.
